In patent US20260049113A1:

Each binder was assayed against T1, Full length human midkine protein (human) (UniProt P21741) (assay: cell-based or functional assay).
T1 sequence: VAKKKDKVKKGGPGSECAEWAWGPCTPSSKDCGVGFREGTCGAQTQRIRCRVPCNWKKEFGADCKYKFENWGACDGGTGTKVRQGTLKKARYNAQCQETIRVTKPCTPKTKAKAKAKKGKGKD

| Binder | Total Area (area under the curve of wound width, Cell Migration Assay) |
| --- | --- |
| Δ41 MDK (truncated human midkine lacking 41 amino acids from the C-terminus) (ligand) VAKKKDKVKKGGPGSECAEWAWGPCTPSSKDCGVGFREGTCGAQTQRIRCRVPCNWKKEFGADCKYKFENWGACDGGTGTKV | 924 |
| Δ58 MDK (truncated human midkine lacking 58 amino acids from the C-terminus) (ligand) VAKKKDKVKKGGPGSECAEWAWGPCTPSSKDCGVGFREGTCGAQTQRIRCRVPCNWKKEFGADCK | 1990 |
| Δ34 MDK (truncated human midkine lacking 34 amino acids from the C-terminus) (ligand) VAKKKDKVKKGGPGSECAEWAWGPCTPSSKDCGVGFREGTCGAQTQRIRCRVPCNWKKEFGADCKYKFENWGACDGGTGTKVRQGTLKK | 768 |
| Δ14 MDK (truncated human midkine lacking 14 amino acids from the C-terminus) (ligand) VAKKKDKVKKGGPGSECAEWAWGPCTPSSKDCGVGFREGTCGAQTQRIRCRVPCNWKKEFGADCKYKFENWGACDGGTGTKVRQGTLKKARYNAQCQETIRVTKPCTPK | 1710 |
| Δ25 MDK (truncated human midkine lacking 25 amino acids from the C-terminus) (ligand) VAKKKDKVKKGGPGSECAEWAWGPCTPSSKDCGVGFREGTCGAQTQRIRCRVPCNWKKEFGADCKYKFENWGACDGGTGTKVRQGTLKKARYNAQCQE | 1040 |
